# “Also recorded” adds a separate entry of the source. Like-named read-outs stand apart in the source and are kept apart here.
# B1: H. influenzae NfnB: nitroreductase from H. influenzae, SEQ ID NO: 17 (protein, listed as Haemophilus influenzae)
# chain: MTQLTREQVLELFHQRSSTRYYDPTKKISDEDFECILECGRLSPSSVGSEPWKFLVIQNKTLREKMKPFSWGMINQLDNCSHLVVILAKKNARYDSPFFVDVMARKGLNAEQQQAALTKYKALQEEDMKLLENDRTLFDWCSKQTYIALANMLTGASALGIDSCPIEGFHYDKMNECLAEEGLFDPQEYAVSVAATFGYRSRDIAKKSRKGLDEVVKWVG
# B2: P. gingivalis YwrO: nitroreductase from Porphyromonas gingivalis, SEQ ID NO: 25 (protein, listed as Porphyromonas gingivalis)
# chain: MKKTLVIVVHPDLTKSVINKAWAKAIEGAATIHHLYEQYPNGQIDLAHEQALLEAHDRIVFQFPLYWYAAPYLLKKWMDEVFTEGWAYGAGGDKMEGKEICAAVSCGSPKSAFAEGAQQCHTLRSYLNVFDGIAAFLRARFTGYHACYDSYNPRLPEMLPANCEAYLRFIKGE
# Assays:
# [1] = biological target: YodC (Bacillus subtilis, UniProt P81102); assay: Substrate and cofactor specificity for YodC
# Protocol: (§1) Quantitative assays using CB 1954 or SN 23862 as substrate were carried out at 37° C. by HPLC as previously described (2) (3). […] Incubation times varied according to the enzyme activity being studied.
# (§2) Assays were carried out spectrophotometrically at 37° C. in 10 mM Tris pH 7.5 using cytochrome c as terminal electron acceptor.
# [2] = tested on: Pae3; assay: Kinetic parameters for Pae3; format: biochemical, Pseudomonas aeruginosa; conditions: menadione as substrate, NADPH as cofactor
# Protocol: […] […] Incubation times varied according to the enzyme activity being studied.
# The protein encoded by Pae3 was overexpressed in E. coli and purified by anion exchange chromatography.
# [3] = tested on: Efa 1; assay: Kinetic parameters for Efa 1; format: biochemical, Enterococcus faecalis
# Description: This gene is more highly related in sequence to ydgI compared to the other sequences used to search databases.
# [4] = tested on: Smu2; assay: Kinetic parameters for Smu2; format: biochemical, Streptococcus mutans
# Protocol: as §1
# [5] = biological target: C. jejuni NfnB (Campylobacter jejuni, UniProt Q0P9I8)
# [6] = biological target: H. influenzae NfnB (Haemophilus influenzae, UniProt Q57431)
# [7] = tested on: CC1=CC(=O)c2ccccc2C1=O; assay: purified protein, by the assay type; conditions: other: 1 mM NADPH; pH 7.0; 37.0 °C
# [8] = tested on: Cc1cc2nc3c(=O)[nH]c(=O)nc-3n(C[C@H](O)[C@H](O)[C@H](O)COP(=O)(O)O)c2cc1C; assay: purified protein, by the assay type; conditions: other: flavin substrates, cofactor not given; pH 7.0; 37.0 °C
# [9] = tested on: Cc1cc2nc3c(=O)[nH]c(=O)nc-3n(C[C@H](O)[C@H](O)[C@H](O)COP(=O)(O)OP(=O)(O)OC[C@H]3O[C@@H](n4cnc5c(N)ncnc54)[C@H](O)[C@@H]3O)c2cc1C; assay: purified protein, by the assay type; conditions: other: flavin substrates, cofactor not given; pH 7.0; 37.0 °C
# [10] = Nitroreductase enzyme assay with CB 1954 as substrate (HPLC); format: biochemical; conditions: for CB 1954 product: Table 6, recombinant enzymes
# [11] = Nitroreductase enzyme assay with SN 23862 as substrate (HPLC); format: biochemical
# [12] = Quinone reductase assay with menadione, cytochrome c as terminal electron acceptor; format: biochemical; conditions: for Quinone reductase: Table 6
# Protocol: as §2
# [13] = Flavin reductase assay with FMN and FAD; format: biochemical; conditions: for Flavin reductase: Table 6
# Protocol: as §2
# [14] = format: biochemical; conditions: Table 6
# [15] = format: biochemical; conditions: Table 6; remark: listed apart in the source
# [16] = tested on: V79 cells; assay: In vitro cytotoxicity test, prodrug + enzyme + cofactor, SRB assay; format: cell-based; conditions: for in vitro cytotoxicity of SN 23862 with enzyme: FIG. 4
# Protocol: Microtitre plates (96 well) were obtained pre-seeded with V79 cells at 10,000 cells/ml (European Collection of Animal Cell Cultures, ECACC) in DMEM+10% foetal calf serum. All treatments were prepared on duplicate plates and transferred to the cells prior to adding enzyme (10 μl) to the appropriate wells. […] Enzymes were diluted in sterile PBS. All aqueous solutions were filter sterilised before use and operations carried out aseptically in a laminar flow hood. […] Cytotoxicity was quantified by sulphorhodamine B (SRB) assay. Briefly, the growth medium was removed and the cells fixed by addition of 100 μl per well of cold 10% TCA for 30 min. The TCA was removed and the fixed cells washed with water before adding 100 μl per well of 0.4% dye in 1% acetic acid and incubating at room temperature for 30 min. Excess dye was removed and the wells washed 4 times with 1% acetic acid. After air drying at room temperature the dye was solubilised by adding 100 μl of 10 mM Tris to each well and shaking for 15 min. […] Cytotoxicity towards treated cells was expressed as % of A492 of untreated controls and statistical analysis was performed using the Mann-Whitney test. ED50's were caculated using probit analysis.
# [17] = tested on: recombinant enzymes (antigens); assay: Polyclonal antisera titres by ELISA; format: binding; conditions: rabbit antiserum; for Post-boost titre: 10 days after booster; for Pre-boost titre (50%): after 8 weeks
# Protocol: Polyclonal antisera were raised against recombinant enzymes by immunising rabbits with […] of protein in 50% PBS:50% Freund's complete adjuvant, total volume 400 μl. Blood was collected by ear bleed after 6-8 weeks and again 10 days after a booster immunisation of protein, and titre assessed by ELISA. 96-well plates were coated with 1 μg ml^−1 of the proteins and blocked with 10% v/v foetal calf serum (FCS), antibodies were diluted in assay buffer (1% FCS) and applied in doubling dilutions across the plate from 1 in 100 to 1 in 51 200 or 1 in 150 to 1 in 76 800. A secondary antibody conjugated with HRP (dilution 1 in 10 000) was used to develop the assay with 3,3′,5,5′-tetramethylbenzidine (TMB) as substrate.
# Antisera to E. coli B NfnB and six novel proteins (Haemophilus influenzae and Campylobacter jejuni NfnB homologues, YdgI and YodC of Bacillus subtilis, YwrO of B. amyloliquefaciens and Porphyromonas gingivalis YwrO homologue) have been raised in rabbits by inoculation with 100 μg of protein in PBS+ Freund's complete adjuvant. Titres were assessed by ELISA after 8 weeks, and 10 days after a booster inoculation of a further 100 μg of protein per rabbit. Pre-immune sera were also tested.
# 96 well plates were coated overnight at 4° C. with the antigens at 1 μg/ml. After washing and blocking antisera were added in doubling dilutions in an appropriate range across the plates. The plates were developed using goat anti-rabbit IgG peroxidase conjugate with TMB as substrate, and read at 450 nm.
# [18] = tested on: recombinant enzymes (antigens); assay: Western blots of antigens with rabbit antisera; format: binding; conditions: antisera 1/10000 or 1/20000, ECL detection
# Protocol: Recombinant enzymes were run on SDS PAGE 4-20% gradient at 0.05, 0.5, 5, 50 and 500 ng with 500 ng of the other antigens to test cross-reactivity. The antisera were added at a dilution of 1/10 000 or 1/20 000. Secondary antibody dilutions were as shown above and detection was by ECL (Amersham).
# Antigens were run on SDS PAGE 4-20% gradient at 0.05, 0.5, 5, 50 and 500 ng with 500 ng of other antigens to test cross-reactivity. The antisera were added at a dilution of 1/10000 (α-P. gingivalis YwrO, α-YwrO BAM and α-H. influenzae NfnB) or 1/20000 (α-E. coli B NfnB and α-YdgI). Secondary antibody dilutions were as shown above and detection was by ECL.
# [19] = substrates, NADPH preferred cofactor
# [20] = Table 6, 37° C., read-out: Km CB 1954
# [21] = listed as P. gingivalis YwrO homologue
# [22] = listed as YwrO of P. gingivalis
# Sequence of YodC (P81102 2-202): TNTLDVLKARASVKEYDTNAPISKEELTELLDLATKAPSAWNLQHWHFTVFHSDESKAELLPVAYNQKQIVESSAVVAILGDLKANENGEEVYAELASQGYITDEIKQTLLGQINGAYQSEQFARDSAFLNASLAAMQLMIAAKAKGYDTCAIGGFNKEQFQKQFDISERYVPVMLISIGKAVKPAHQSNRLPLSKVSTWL
# Sequence of C. jejuni NfnB (Q0P9I8 entry or part of it): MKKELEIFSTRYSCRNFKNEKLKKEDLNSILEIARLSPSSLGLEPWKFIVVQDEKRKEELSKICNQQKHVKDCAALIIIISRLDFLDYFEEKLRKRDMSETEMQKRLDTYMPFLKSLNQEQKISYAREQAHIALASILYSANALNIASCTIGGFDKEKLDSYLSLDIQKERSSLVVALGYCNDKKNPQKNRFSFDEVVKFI
molecule,measurement,setting,value
CC1=CC(=O)c2ccccc2C1=O [Menadione],kcat,[1]; cofactor NADH,415.4 ± 14.8 s⁻¹
same,Km,"[1]; cofactor NADH, 37° C., 10 mM Tris pH 7.5",1000 ± 100 nM
same,Km,[1]; cofactor NADPH,1600 ± 200 nM
same,kcat,[1]; cofactor NADPH,329.5 ± 18.4 s⁻¹
same,Km,[2],3.8 µM
same,Ksi,[2],18.0 µM
same,kcat,[2],153.4 s⁻¹
same,Ksi,[3],18.0 µM
same,Km,"[3]; substrates, cofactor not given",107 µM
same,kcat,"[3]; substrates, cofactor not given",264.8 s⁻¹
same,Km,[4]; [19],2700 nM
same,kcat,[4]; [19],201.0 s⁻¹
same,kcat,[5]; 1 mM NADPH,66.1 s⁻¹
same,kcat,[6]; 1 mM NADH,24.1
same,kcat,[6]; 1 mM NADPH,177.8
C. jejuni NfnB (Campylobacter jejuni subsp. jejuni NCTC 11168 = ATCC 700819),Km,[7],1.3 ± 0.2 μM μM
same,Km,[8],0.7 ± 0.2 μM μM
same,Km,[9],3.3 ± 0.4 μM μM
NADPH,Km,[2],308 µM
same,kcat,[2],33.8 s⁻¹
same,Km,[4]; 100 uM menadione,1300 nM
same,kcat,[4]; 100 uM menadione,188.7 s⁻¹
same,kcat,[5]; 20 μM menadione,62.5 s⁻¹
same,kcat,[6]; menadione 100 μM,154.2
B1,reduction of CB1954: activity and product formed,[10],form the 4HX reduction product of CB1954
same,kcat (CB 1954),"[10]; Table 6, 37° C.",56.2 s⁻¹
same,Km,[10]; [20],0.69 mM
same,CB 1954 product,[10],4HX
same,activity with SN23862,[11],weak activity with SN23862
same,"SN 23862 acitvity, second number of the cell (kcat)","[11]; Table 6, HPLC assay",39.8
same,Km,"[11]; Table 6, HPLC assay, read-out: SN 23862 acitvity, first number of the cell (Km)",3.36 mM
same,activity with menadione / quinone reductase,[12],lacks activity with the quinone menadione
same,Quinone reductase,[12],Yes
same,Flavin reductase,[13],Weak
same,flavin reductase activity,[13]; listed as H. influenzae NfnB homologue,lacks activity with the quinone menadione and flavins FMN or FAD; also recorded: little activity
same,Azo-Reductase,[14],No
same,Cofactor,[15],NADPH
same,in vitro cytotoxicity of CB 1954 with enzyme,[16]; FIG. 3,most potent
same,in vitro cytotoxicity of SN 23862 with enzyme,[16],most potent
same,Post-boost titre,[17],760
same,Pre-boost titre (50%),[17],180
B2,kcat (CB 1954),[10],3.2 s⁻¹
same,kcat for CB1954 (text),[10],3.2 s⁻¹
same,reduction of CB1954: activity and product formed,[10],only the 4HX reduction product
same,Km,[10]; [20],1.2 mM
same,CB 1954 product,[10],4HX
same,Km,[10]; read-out: Km for CB1954,1.2 mM
same,SN 23862 acitvity,[11]; Table 6,Yes
same,activity with SN23862,[11]; [21],active with SN23862; also recorded: too slow for kinetic parameters to be calculated accurately
same,Quinone reductase,[12],No
same,activity with menadione / quinone reductase,[12]; [21],inactive with menadione or flavins
same,activity with menadione / quinone reductase,[12]; [22],little activity with menadione or flavins
same,Flavin reductase,[13],No
same,flavin reductase activity,[13]; [21],inactive with menadione or flavins
same,flavin reductase activity,[13]; [22],little activity with menadione or flavins
same,Azo-Reductase,[14],Yes
same,Cofactor,[15],NADH
same,in vitro cytotoxicity of SN 23862 with enzyme,[16],lack of activity
same,Post-boost titre,[17],3100
same,Pre-boost titre (50%),[17],1000
same,amount of antigen detected by its antiserum in Western blot,[18],500 ng
